These are literature values, as cited in article doi:10.1101/2022.06.02.22275920v1, “Glucagon/GLP-1 receptor co-agonist NNC9204-1177 reduced body weight in adults with overweight or obesity but was associated with safety issues” (medRxiv, 2022).

For this data set the following is noted: type 2 diabetes; 1.0 mg dose level. The source says: Indeed, GLP-1 RAs are known to have chronotropic effects; for example, increases in pulse rate have been reported in participants with type 2 diabetes in a MAD trial with semaglutide and in trials with dulaglutide and a dual glucose-dependent insulinotropic polypeptide (GIP) and GLP-1 RA [33]. However, the increase in heart rate for NN1177 far exceeds that observed for semaglutide; for example in the SUSTAIN 6 cardiovascular outcomes trial for semaglutide in type 2 diabetes, a placebo ...

For the substance semaglutide, the “placebo-corrected heart rate increase” value is recorded as 3.2 bpm.
